Results on four molecules are retold here after patent US12618081B2, “Brown marmorated and harlequin stink bug pheromone enzyme synthesis and uses thereof” (VIRGINIA TECH INTELLECTUAL PROPERTIES, INC., priority 2019, dated 2026).

In one series the test system is H. halys. The conditions noted are these: added to a trap containing the two principle components of the H. halys pheromone; cited from earlier work.
Series [1] in a line: Kinetic analysis of E. coli expressed MhTPS with [1-3H]-(E,E)-FPP. In kind it is biochemical, Murgantia histrionica. The conditions noted are these: (E,E)-FPP as the substrate. As to the method:
(§1) Assays with heterologously expressed protein were performed in assay buffer (see above) in a total volume of 250 μl with partially purified protein, 1 mM DTT, and 50 µM allylic substrate [(E,E)-, (Z,E)- or (Z,Z)-FPP] and incubated at 30° C. for 1 h with a 250 μL hexane overlay. Assays were stopped on ice and compounds extracted by mixing (vortex) at maximum speed for . . . 15 sec. Phases were separated by centrifugation at 4000×g for 10 min and the hexane phase was removed and dried over MgSO4 One μl of liquid sample was injected in splitless mode and analyzed by GC-MS. For identification of the MhTPS product, assays were scaled up by incubating 1 mL protein in a 7 mL screw top test tube and the obtained hexane extract was used for further analysis. To determine enzyme kinetic parameters, assays were performed in a final volume of 50 μL with 0.3 μg partially purified, E. coli expressed MhTPS enzyme and increasing concentrations of [1-3H]-(E,E)-FPP (64 uCi mmol-1). Assays were incubated in triplicate at 30° C. for 5 min prior to extraction of the reaction product with 250 μl hexane. Quantification of the radioactive product were as described by Tholl et al. (Tholl et al., 2005). Calculation of Km and Vmax values was performed by rectangular hyperbolic regression analysis using the Hyperbolic Regression Analysis (HYPER 1.01) software (J. S. Easterby, University of Liverpool).

Series [2] is described as follows: TPS activity assay of recombinant M. histrionica IDS-like proteins, GC-MS of hexane extracts. The series is classed as biochemical, Murgantia histrionica. As to the method:
as §1
(§2) GC-MS analysis was performed by liquid injection at 240° C. running in split 5 mode and separated on a GC-2010 gas chromatograph (Shimadzu, Kyoto, Japan) using a 30 m×0.25 mm i.d.×0.25 μm film Zebron ZB-XLB column coupled with a QP2010S mass spectrometer (Shimadzu). The GC program was as follows: 40° C. with 2 min hold, then raised to 220° C. at 5° C./min, then raised to 240° C. at 70° C./min followed by a 2 min hold time. Mass spectrometry was performed with an ion source temperature of 240° C., interface temperature of 280° C., electron ionization (EI) potential of 70 eV and scan range of 50 to 400 atomic mass units. Helium was used as a carrier gas at 1.9 mL/min. Terpene olefin products were identified by comparison of retention times and mass spectra with those of authentic standards.

Series [3] in a line: IDS (prenyltransferase) activity assay of recombinant M. histrionica proteins, LC-MS/MS. In kind it is biochemical, Murgantia histrionica. The conditions noted are these: IPP and DMAPP as substrates. As to the method:
For enzyme assays, 96 μl of partially purified protein were mixed with 2 μl 50 μM isopentenyl diphosphate (IPP; Sigma) and 2 μl 50 μM dimethylallyl diphosphate (DMAPP; Sigma) and incubated at 30° C. for 2 h. Analysis of IDS enzyme products was done using an Agilent 1260 HPLC system (Agilent Technologies) coupled to an API 5000 triple-quadrupole mass spectrometer (AB Sciex Instruments) according to the protocol described by Beran et al. (Beran et al., 2016).

A short description of series [4]: TPS activity assay of recombinant H. halys IDS-like proteins, GC-MS. In kind it is biochemical, Halyomorpha halys. As to the method:
Assays with heterologously expressed protein were performed in assay buffer (see above) in a total volume of 100 μl with partially purified protein, 1 mM DTT, and 50 μM allylic substrate [(E,E)-, (Z,E)- or (Z,Z)-FPP] and incubated at 30° C. for 1 h with a 100 μL hexane overlay. Assays were stopped on ice and compounds extracted by mixing (vortex) at maximum speed for 15 sec. Phases were separated by centrifugation at 4000×g for 10 min and the hexane phase was removed and dried over MgSO4. One μl of liquid sample was injected in splitless mode and analyzed by GC-MS.
as §2

The nature of series [5]: IDS activity assay of recombinant H. halys HhIDS2, LC-MS. The series is classed as biochemical, Halyomorpha halys. The conditions noted are these: IPP and DMAPP. Here is the method:
For enzyme assays, 96 μl of partially purified protein were mixed with 2 μl 50 μM isopentenyl diphosphate (IPP; Sigma) and 2 μl […] dimethylallyl diphosphate (DMAPP; Sigma) and incubated at 30° C. for 2 h. Analysis of IDS enzyme products was done using an Agilent 1260 HPLC system (Agilent Technologies) coupled to an API 5000 triple-quadrupole mass spectrometer (AB Sciex Instruments) according to the protocol described by Beran et al. (2016).

In the case of `CCC\C=C/C=C/C=C/C(=O)OC` [MDT, methyl (E,E,Z)-2,4,6-decatrienoate], the “increase in captured bugs” value in the series with H. halys is recorded as 70%.

B1: MhTPS1: IDS-type sesquiterpene (sesquipiperitol) synthase of Murgantia histrionica, 385 aa, GenBank MG662378, SEQ ID NO: 1 (protein)
chain: MVSIAAKSLPKLSGAVFGQFSRRKQLIQRHWLDTRTDQYYDVLRRIVVPECKNIASDVPEYPERIEKLLYYTNPAFSDAWNFTTELIYRTVADESHQTEENITKMYLIRATMDLLFTMSAVLDDISDRSEFRKGKKGWHMICQGGESTALYDGTQMGLFPLYLLKQYFKNDPGYSRLLETVVMTYIKLTIGQTIDVLGQFKKSPSMAEYKRINYYKAGQFVAAGSELAVIHAGITSQDLIDKTVEIFTIAGQIIQTWDDFNDYYSSSEQNGKLSCDFMNAGTTWVSAKAMEVFTPSQAVKFMECYGSDDQSKMKTVQELYDEIDMPKLYTEYVLENYNRCETLIKELPHDRLREACSSYMEWLVVRETPDEDSEHKVALCLNISG
modifications: Murgantia histrionica “harlequin bug” Terpene Synthase (TPS)
The term kcat denotes the maximal rate divided by the concentration of active sites. Broadly, the Km is the substrate concentration at which the rate is half of its maximum. With B1, in series [1], the Vmax is on record as 675.3±53.7 pkat/mg and the kcat was 0.03 ± 0.003 s⁻¹. For the same molecule, the Km in series [1] (read-out: apparent Km) turned out to be 4 ± 0.7 µM. Also, in series [2] ((E,E)-FPP as a substrate, N-terminal His-tag, E. coli), the “sesquiterpene synthase activity, product” value is “a terpene alcohol as its main product”. Besides, the “pH of highest activity” value in series [2] ((E,E)-FPP as substrate) is given as 7. For the same molecule, the sesquipiperitol production entry in series [2] ((Z,E)-FPP as substrate) was “at lower levels”. Also, the enzymatic activity entry in series [2] ((Z,Z)-FPP as the substrate) was “almost no enzymatic activity”. Moreover, in series [2] (GPP as substrate), the “conversion of GPP, products” value is given as “several monoterpene olefins”. Besides, in series [2] (between 0.1 and 10 mM Mg^2+, (E,E)-FPP as substrate), the “increase of activity (relative amount of sesquipiperitol)” value is “approximately 2 fold”. For the same molecule, the “formation of terpene products” value in series [2] (incubated with IPP and DMAPP) is on record as “no formation of terpene products”. For the same molecule, in series [3], the “IDS activity: formation of FPP” value is reported as “not observed”.

B2: HhIDS2: bona fide IDS enzyme of Halyomorpha halys making (E,E)-FPP, 403 amino acids, GenBank MG870389 (protein)
chain: MPFAKLCVQKLSNPLMKLCYPNLNGRLSLSKFSNSLDNSTFKFLSCNPHTICREHNTVAIRPQTITKDDKRDFMAVFPDIVRDLTQQDPGISDLSTLISKLMQYNVSGGKKVRGLTVVYSYRMLAPDHDLTPENIRLAQILGWCVEMLQGFFVVIDDLTDQSVTRRGRPCWYRLPGIGLRASSDALLIQAGTFQLLQQHCKDKEFYVDLVELFLDATRRTTYGQTLDLVSSFPNITHLTMDRYNFITKYKTSYYTFHLPVAIAMYMAGIYNTELHRQAKSVLLEMGHYFQVQDDYLDVFSDEEVSGKKGTDIQEGKCTWLAIIAFQRASPSQREILESCYGSKDPEKIQKVKDIFIEIGLPAVFHAYEEETYNLITRQIQQLSEGLPHELFLTLLHKMYGRKQ
modifications: HhFPPS
notes: bona fide IDS enzyme of Halyomorpha halys making (E,E)-FPP, 403 amino acids, GenBank MG870389
Turning to B2, the terpene product formation result in series [4] (FPP isomers as substrate) was “did not produce a terpene product”. Moreover, the “IDS activity: product” value in series [5] was “only (E,E)-FPP”.

B3: HhIDS1: IDS-type sesquiterpene synthase of Halyomorpha halys, 377 amino acids, main product elemol, GenBank MG917093 (protein)
chain: MIPKTLGNFTGYVLRIALNKKHVNVRHKLDTDIGKYYQTLNDVVIPECMEFVKDAQGLPQRMKECIGYTTPYCYEGWNFCVELLYKTVADKPHQTEENLKKMRILRVLSDMSHSMHFILDDYADKAEFRQGKKIWASICEGGQEAAIYDTFTVNYLINCMLQRHFRNDPGFTKMCEMFSWVNGNSGIGQVLDILDHKNSDFSDYASWKNKVEYKSRNTMCAFPVLGLLHAGLTCNDLIHKTMDIFGDYGLMFQVWNDFMDFYSVQEESGKGNYDCKNNVKTWATITAMSHFNPAQAKEFRDCYGTNDPAKRSRVRELFDEIDLPRKYLDYLRNIRVTVEKKISELSDARVRDASTSYLEWLHGNGHHDVELEILKAP
modifications: HhTPS2
notes: IDS-type sesquiterpene synthase of Halyomorpha halys, 377 amino acids, main product elemol, GenBank MG917093
Consider B3, for which, in series [4] (either (E,E)-FPP or (Z,E)-FPP as substrates), the sesquiterpene products result is “several sesquiterpene olefins and alcohols at low abundance”.
